Data as given in article PMC6591170.

Target: human alpha-thrombin (Homo sapiens, UniProt P00734;P00734 315-363;364-622)
Experiment: ITC; ITC in PBS (10 mM phosphate, 2.7 mM KCl, 137 mM NaCl), pH 7.4, 22 °C; ODN 25 or 100 µM into thrombin 2.5 or 10 µM

Binder	Kd [nM]
GGTTGGTGTGGTTGG (structured_DNA) [TBA]	8
AA (structured_DNA, 3'-3' phosphodiester inversion joins the two listed segments covalently (both written 5' to 3'); one molecule, not a duplex) DNA 1: GGTTGGTGTGGTTGGA DNA 2: GGTTGGTGTGGTTGGA	10
